Source: US7314724B2, “Therapeutic applications of laminin and laminin-derived protein fragments” (University of Washington, priority 1996, dated 2008)

Legend:
[1] = biological target: T1, pre-formed Aβ (1-40) amyloid fibrils (Homo sapiens, UniProt P05067); test: Thioflavin T fluorometry, dissolution of pre-formed Aβ (1-40) amyloid fibrils; format: biochemical; conditions: for dissolution of pre-formed Aβ amyloid fibrils: 25 μM fibrillized Aβ, 4 day incubation; for dose dependence of dissolution of pre-formed Aβ amyloid fibrils, in words: 16-125 nM laminin, 4 day incubation (FIG. 5)
T1 construct: 2 μg of Aβ (1-40)(Bachem Inc., Torrance, Calif. USA; Lot #WM365); purchased Bachem Inc., Torrance, Calif; Lot #WM365
Experimental: For this study, 1 mg of Aβ (1-40)(Bachem Inc., Torrance, Calif., USA; Lot #WM365) was dissolved in 1.0 ml of double distilled water (1 mg/ml solution) and then incubated at 37° C. for 1 week. 25 μM of fibrillized Aβ was then incubated at 37° C. in the presence or absence of laminin (from EHS tumor; Sigma Chemical Company, St. Louis, Mo., USA) at concentrations of 125 nM, 63 nM, 31 nM and 16 nM containing 150 mM Tris HCl, 10 mM NaCl, pH 7.0. Following a 4 day incubation, 50 μl aliquots were added to 1.2 ml of 100 μM Thioflavin T (Sigma Chemical Co., St. Louis, Mo.) in 50 mM NaPO4 (pH 6.0) for fluorometry readings as described in example 2.

biotinylated Aβ (1-40) = biological target: T2, biotinylated Aβ (1-40) (Homo sapiens, UniProt P05067); test: Aβ ligand blot of undigested and V8-, trypsin- or elastase-digested EHS laminin; format: binding; conditions: 2 μM biotinylated Aβ (1-40), SDS-PAGE under non-reducing conditions
T2 construct: Aβ (1-40) was biotinylated according to the manufacturer's protocol (Pierce, Rockford, Ill.)
Experimental: For these experiments, Aβ (1-40) was biotinylated according to the manufacturer's protocol (Pierce, Rockford, Ill.). For the ligand studies, intact EHS laminin was left undigested, or digested with V8 or trypsin (Sigma Chemical Company, St. Louis, Mo., USA). More specifically, 2 μg of trypsin or V8 protease in 2 μl of 50 MM Tris-HCl buffer (pH 8.0) were added to 50 μl of laminin (50 μg)(in the same buffer) and incubated overnight at 37° C. The next day, 10 μl of protease-digested laminin (or undigested laminin) was mixed with 10 μl of 2× sodium dodecyl sulfate polyacrylamide gel electrophoresis (SDS-PAGE) sample buffer, and heated for 5 minutes in a boiling water bath. SDS-PAGE was performed according to the method of Laemmli (Laemmli, U.K. Nature 227:680-685, 1970), or according to the method of Schägger and Jagow (Schägger and Jagow, Anal. Biochem. 166:368-379, 1987) using a Mini-Protean II electrophoresis system (Biorad) with precast 4-15% Tris-Glycine or 10-20% tricine polyacrylamide gels, respectively, and under non-reducing conditions. Electrophoresis occurred at 200V for 45 minutes along with pre-stained molecular weight standards. After SDS-PAGE (10-20% tricine or 4-15% Tris-Glycine gels) was performed as described above, the separated laminin and its fragments (total protein of 10 μg/lane) were transferred to polyvinylidine difluoride membrane (PVDF) using a Mini transblot electrophoresis transfer cell (Biorad, Hercules, Calif., U.S.A.). Electrotransfer was performed at 100V for 2 hours. Following transfer, membranes were rinsed with methanol and dried. The fragment(s) of laminin involved in binding to Aβ were then detected by using biotinylated-Aβ (1-40), as described above. Blots were probed for 2 hours with 2 μM biotinylated Aβ (1-40) in TTBS. The membranes were then rinsed three times (10 seconds each) with TTBS, probed for 30 minutes with strepavidin alkaline phosphatase conjugate (Vectastain), rinsed again (as described above), and followed by the addition of an alkaline phosphatase substrate solution (Vectastain). Following color development, the reaction was stopped by flushing the membranes with double distilled water. In the next set of studies, we determined whether small fragment(s) of laminin generated by elastase digestion would bind to Aβ. […] For these experiments, Aβ (1-40) was biotinylated according to the manufacturer's protocol (Pierce, Rockford, Ill.). For the ligand studies, intact EHS laminin was left undigested, or digested with elastase (Sigma Chemical Company, St. Louis, Mo., USA). For elastase digestion, 2 μg of elastase in 8 μl of 50 mM Tris-HCl buffer (pH 8.0) was added to 50 μl of laminin (50 μg)(in the same buffer) and incubated for 1.5 hours or 2.5 hours at 37° C. In addition, as a control, 2 μg of elastase in 50 μl of 50 mM Tris-HCl buffer (pH 8.0) was incubated for 2.5 hours at 37° C. Following the appropriate incubation times as described above, 10 μl of each of the above incubations were mixed with 10 μl of 2× SDS-PAGE electrophoresis sample buffer, and heated for 5 minutes in a boiling water bath. SDS-PAGE was performed according to the method of Laemmli (Laemmli, Nature 227:680-685, 1970) using a Mini-Protean II electrophoresis system with precast 4-15% Tris-Glycine polyacrylamide gels, and under non-reducing conditions. Electrophoresis occurred at 200V for 45 minutes along with pre-stained molecular weight standards (Biorad). After SDS-PAGE was performed as described above, the separated laminin fragments were transferred to PVDF using a Mini transblot electrophoresis transfer cell (Millipore, Bedford, Mass., U.S.A.). Electrotransfer was performed at 100V for 2 hours. Following transfer, membranes were rinsed with methanol, dried and cut into two equal parts which were used for Aβ ligand blotting, or Coomassie blue staining and subsequent amino acid sequencing. The fragment(s) of laminin involved in binding to Aβ were then detected by using biotinylated-Aβ (1-40), as described above. […]

T1 sequence (P05067 672-711 limits assumed): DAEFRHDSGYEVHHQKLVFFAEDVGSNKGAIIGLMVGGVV
T2 sequence (P05067 672-711 limits assumed): as above

laminin: Engelbreth-Holm-Swarm (EHS) mouse tumor laminin (Sigma); 850 kDa basement membrane glycoprotein of A, B1 and B2 chains
dissolution of pre-formed Aβ amyloid fibrils ([1]; 16 nM laminin): 25% | dissolution of pre-formed Aβ amyloid fibrils ([1]; 31 nM laminin): 28% | dissolution of pre-formed Aβ amyloid fibrils ([1]; 63 nM laminin): 39% | dissolution of pre-formed Aβ amyloid fibrils ([1]; 125 nM laminin): 41% | dose dependence of dissolution of pre-formed Aβ amyloid fibrils, in words [1]: dissolution of pre-formed Alzheimer's disease amyloid fibrils in a dose-dependent manner | dose dependence of dissolution of pre-formed Aβ amyloid fibrils, in words ([1]; listed as Laminin): dose-dependent manner | interaction with biotinylated Aβ (1-40) on ligand blot, in words (biotinylated Aβ (1-40)): most prominent Aβ-interaction
